Data reported in patent US20160083479A1 (AGENCY FOR SCIENCE TECHNOLOGY AND RESEARCH, published 2016).
No end group written: not given here. *: point of attachment. Biotin = O=C1N[C@H]2[C@H](CS[C@H]2CCCCC(=O)*)N1

Tests used:
[1] = target: T1, peptide O27; assay: Pepscan / alanine scan peptide ELISA on streptavidin plates, A450
T1 construct: Negative control peptide
T1 peptide: Biotin-SGSGQSEVHCIFSPQIEEP
Procedure: Variations of peptides O28 and O29, where each amino acid residue was sequentially substituted for an alanine residue, were synthesised. Streptavidin-coated plates (Pierce/Thermo Scientific, #15520) were blocked with 3% BSA/PBS at room temperature. The peptides were dissolved in DMSO and stored according to manufacturer's recommendation. Streptavidin-coated plates were coated with each peptide (5 μg/mL) overnight at room temperature. Wells were washed before hybridoma supernatant or purified monoclonal antibody was added to the each well. HRP-conjugated anti-mouse antibody was added to detect bound monoclonal antibodies. ELISA substrate (Bio-Rad #172-1067) solution was prepared freshly according to the manufacturer's instructions and added to the wells. Colour change was monitored by eye and the reaction was stopped by adding 100 mM sulphuric acid. Absorbance was read at 450 nm in a microplate reader (SPECTRAmax PLUS³⁸⁴, Molecular Device, U.S.A). The crystal structure of c-Met extracellular domain, accession number 1 SHY, was obtained from Protein Data Base (PDB). Computer imaging of the epitopes were analysed by PyMol (DeLano Scientific LLC, U.S.A) software.
Pepscan analysis was used to determine the region of c-Met α-chain bound by mAb 2. […] Binding of the antibody was detected by colorimetric assay and analysed by absorbance reading at […]. […]

[2] = target: T2, peptide P7; assay: titration of purified mAb 2 against peptides, ELISA A450; rank order
T2 sequence (peptide, biotin at the N-terminus, linked by the SGSG linker): SGSGCIFSPQAEEPSQCPD

[3] = target: T3, peptide P9; assay: as above
T3 sequence (peptide, biotin at the N-terminus, linked by the SGSG linker): SGSGCIFSPQIEAPSQCPD

[4] = target: T4, peptide P15; assay: as above
T4 sequence (peptide, biotin at the N-terminus, linked by the SGSG linker): SGSGCIFSPQIEEPSQCPA

[5] = target: T5, peptide P19; assay: as above
T5 sequence (peptide, biotin at the N-terminus, linked by the SGSG linker): SGSGQIAEPSQCPDCVVSA

[6] = target: peptide O28 (human); assay: as above
[7] = target: T6, peptide P10; assay: as above
T6 sequence (peptide, biotin at the N-terminus, linked by the SGSG linker): SGSGCIFSPQIEEASQCPD

[8] = target: T7, peptide P17; assay: as above
T7 sequence (peptide, biotin at the N-terminus, linked by the SGSG linker): SGSGAIEEPSQCPDCVVSA

[9] = target: T8, peptide P20; assay: as above
T8 sequence (peptide, biotin at the N-terminus, linked by the SGSG linker): SGSGQIEAPSQCPDCVVSA

[10] = target: T9, peptide P25; assay: as above
T9 sequence (peptide, biotin at the N-terminus, linked by the SGSG linker): SGSGQIEEPSQCADCVVSA

B1: mAb 2 (antibody, IgG1, V domains shown)
VH: QVQLKESGGGLVQPGGSLTLSCATSGFTFTDHYMSWVRQPPGKALEWLAFIRNKAKGYTTEYNASVRGRFTISRDNSQNIVYLQMNTLRTEDSATYYCARDGVGIAYWGQGTLVTVSA
VL: SIVMTQSPLSLPVSLGDQASISCRSSQSLENINGNTYLNWYFQKPGQSPQLLIYRVSNRVSGVLDRFSGSGSGTDFTLKITRVEAEDLGVYFCLQVTHVPWTFGGGTKLEIK
notes: Murine monoclonal antibody purified from ascites (or hybridoma supernatant in the first Pepscan); constant regions are not; also called full length murine mAb 2
B1 was tested, and the binding result [1] was “no binding”, the Increase mAb 2 binding in ascending order (rank) [2] was 8 and the Increase mAb 2 binding in ascending order (rank) [3] was 4. For the same binder, the Increase mAb 2 binding in ascending order (rank) [4] was 10, the Increase mAb 2 binding in ascending order (rank) [5] was 6 and the Increase mAb 2 binding in ascending order (rank) [6] was 11. It also gave an Increase mAb 2 binding in ascending order (rank) [7] of 7, an Increase mAb 2 binding in ascending order (rank) [8] of 5 and an Increase mAb 2 binding in ascending order (rank) [9] of 9. For the same binder, the Increase mAb 2 binding in ascending order (rank) [10] was 3.
